Literature values, collected in paper PMC3931689.

Molecular target: Protein phosphatase 1 (Mus musculus) (UniProt P62137)
Chain of UniProt P62137 (P62137 2-330): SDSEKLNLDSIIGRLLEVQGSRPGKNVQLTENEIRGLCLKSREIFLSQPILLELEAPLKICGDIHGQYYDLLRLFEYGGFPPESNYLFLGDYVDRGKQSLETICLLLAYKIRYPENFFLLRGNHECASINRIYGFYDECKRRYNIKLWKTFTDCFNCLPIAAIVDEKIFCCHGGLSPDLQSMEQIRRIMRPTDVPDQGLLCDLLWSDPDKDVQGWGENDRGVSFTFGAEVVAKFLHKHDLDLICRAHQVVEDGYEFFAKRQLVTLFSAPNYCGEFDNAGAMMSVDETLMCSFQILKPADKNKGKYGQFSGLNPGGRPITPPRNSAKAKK

## Inhibitor-1 (from UniProt Q9ERT9)
  Ki: 1 nM
